Target: GST-PfPP1c (P. falciparum)

A pNPP dephosphorylation activity of recombinant PfPP1c (40 pmol, without GST) pre-incubated 30 min at 37°C with different amounts of PbGEXP15 (4–178); concentration-dependent increase of 2 fold was found for “6-His PbGEXP15 (4–178) (domain or fragment)” in this work.

A pNPP dephosphorylation activity of recombinant PfPP1c (40 pmol, without GST) pre-incubated 30 min at 37°C with different amounts of PbGEXP15 (4–590); concentration-dependent increase of 2 fold was found for “6-His PbGEXP15 (4–590) (domain or fragment)” in this work.

Reference: article PMC6685639
